Columns and labels:
[1] = molecular target: Drp1 short GG (minimal GTPase-GED construct of Drp1, short splice variant) (human) (UniProt O00429); experiment: SEC-MALS; GG constructs after 30 min at room temperature with the transition-state analog GDP.AlFx (2 mM GDP, 4 mM MgCl2, 2 mM AlCl3, 20 mM NaF); Drp1 GG 25 μM, Dyn1 GG and GG-PRD 15 μM; Superdex 75 10/300 GL
[2] = molecular target: MffΔTM (residues 1–217), dimeric variant; experiment: SEC-MALS; MffΔTM (100 μM) and GST (100 μM) on Superose 6 10/300 GL
[3] = molecular target: glutathione S-transferase (GST); experiment: as above

Sequence of glutathione S-transferase (GST) (enzyme) (P08515 2-218): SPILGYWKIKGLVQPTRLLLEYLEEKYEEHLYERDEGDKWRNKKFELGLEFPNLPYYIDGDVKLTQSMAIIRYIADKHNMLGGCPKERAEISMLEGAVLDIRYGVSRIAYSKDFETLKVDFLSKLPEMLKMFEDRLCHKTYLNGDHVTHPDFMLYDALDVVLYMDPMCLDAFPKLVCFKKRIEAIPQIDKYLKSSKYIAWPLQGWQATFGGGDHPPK

## Drp1 short GG (minimal GTPase-GED construct of Drp1, short splice variant) (from UniProt O00429-4 1-327; O00429-4 1-327) (domain or fragment)
[1]
  stoichiometry N: 2

## MffΔTM (residues 1–217), dimeric variant (domain or fragment)
[2]
  stoichiometry N: 2

## glutathione S-transferase (GST) (enzyme)
[3]
  stoichiometry N: 2

Reference: paper PMC6051998
